Measurements reported in patent publication US20030170895A1, “Methods of making hypermutable cells using PMSR homologs” (priority 2002, published 2003).

How the values were obtained:
[1] = tested on: Yeast cells that express hPMS2-R2; test: Chemical mutagen (EMS) plus MMR-defective yeast, ura mutant selection on 5-FOA plates; format: cell-based; conditions: EMS 0-200 pM, 30-120 minutes; PMS2-R2 cultures induced with methanol vs uninduced parental or wild type strain
Source text: It has been previously documented that MMR deficiency yields to increased mutation frequency and increased resistance to toxic effects of chemical mutagens (CM) and their respective analogues such as but not limited to those as: ethidium bromide, EMS, MNNG, MNU, Tamoxifen, 8-Hydroxyguanine, as well as others listed but not limited to in publications by: Khromov-Borisov, N. N., et al. (1999) Mutat. Res. 430:55-74; Ohe, T. et al. (1999) Mutat. Res. 429:189-199; Hour, T. C. et al. (1999) Food Chem. Toxicol. 37:569-579; Hrelia, P. et al. (1999) Chem. Biol. Interact. 118:99-111; Garganta, F. et al. (1999) Environ. Mol. Mutagen. 33:75-85; Ukawa-Ishikawa S. et al. (1998) Mutat. Res. 412:99-107; www.ehs.utah.edu/ohh/mutagens; Marcelino, L. A. et al (1998) Cancer Res. 58(13):2857-2862; Koi, M. et al. (1994) Cancer Res. 54:4308-4312. Mismatch repair provokes chromosome aberrations in hamster cells treated with methylating agents or 6thioguanine, but not with ethylating agents.
Yeast cells that express hPMS2-R2 (induced or un-induced) and empty vector control cells are grown as described in Examples 5 and 6) and for 24 hours and diluted into MM medium as described above. Next, the cells in MM are incubated either with or without increasing amounts of ethyl methane sulfonate (EMS) from 0, 1, 10, 50, 100, and 200 pM. […] Mutants are selected and scored as above. […]

wild type yeast cell = conditions: mutagen treatment; Boeke et al. 1984; cited from earlier work
293 cells = test: β-galactosidase activity from MMR-sensitive pCAR-OF reporter; format: cell-based; conditions: 293 cells expressing the homolog plus pCAR-OF reporter, grown 17 days; FIG. 5
Source text: Cells in which MMR activity is decreased results in MI leading to insertion-deletion mutations within the β-galactosidase gene, a subset of which will restore the open reading frame (ORF) and produce functional enzyme. Cells are grow for 17 days and then harvested for protein lysates to measure β-galactosidase activity generated by each cell line. Cells in which a high rate of mutagenesis has occurred will produce β-galactosidase activity, while cells in which MMR activity is functional will retain background levels of enzymatic activity. Each cell line was tested in two independent experiments (experiment 1 and experiment 2). Extracts were incubated with a calorimetric galactose substrate for 1 hour. Enzyme activity as a function of substrate conversion was measured by optical density at 576 nm as described (Nicolaides, N. C. et al. (1998) Mol. Cell. Biol. 18:1635-1641). […] MI was monitored at the gene level to confirm that genetic alterations occurred within the polynucleotide repeat disrupting the β-galactosidase ORF.

[2] = tested on: Pichia pastoris yeast cells; test: Generation of uracil requiring mutants, 5-FOA selection after methanol induction; format: cell-based
Procedure: Pichia pastoris yeast cells were transformed with pPIC3.5K vector, pPIC3.5K-PMS134, and pPIC3.5K-hR2 as follows. First, 5 ml of YPD (1% yeast extract, 2% bacto-peptone, 1% dextrose) medium was inoculated with a single colony from a YPD plate (same as YPD liquid but add 2% Difco agar to plate) and incubated with shaking overnight at 30° C. The overnight culture was used to inoculate 500 ml of YPD medium (200 ul of overnight culture) and the culture incubated at 30° C. until the optical density at 600 nm reached 1.3 to 1.5. The cells were then spun down (4000×g for 10 minutes), and then washed 2 times in sterile water (one volume each time), then the cells suspended in 20 ml of 1 M sorbitol. The sorbitol/cell suspension was spun down (4,000×g for 10 minutes) and suspended in 1 ml of 1 M sorbitol. 80 ul of the cell suspension was mixed with 5 to 10 ug of linearized plasmid DNA and placed in a 0.2 cm cuvette, pulsed length 5 to 10 milliseconds at field strength of 7,500 V/cm. Next, the cells are diluted in 1 ml of 1 M sorbitol and transferred to a 15 ml tube and incubated at 30° C. for 1 to 2 hours without shaking. Next, the cells are spun out (4,000×G for 10 minutes) and suspended in 100 ul of sterile water, and 50 ul/plate spread onto the appropriate selective medium plate. The plates are incubated for 2 to 3 days at 30° C. and colonies patched out onto YPD plates for further testing. […]

Question: With `CCOS(C)(=O)=O` [EMS, ethyl methane sulfonate] as the molecule, how does the “frequency of ura mutants” value [1] read?
Answer: Its value is “increase in the frequency of ura mutants”.

Question: And the “number of ura mutants” value (wild type yeast cell)?
Answer: The value was “low number of ura mutants”.

B1: PMSR2: human PMS2 related gene/protein, PMS2 homolog, dominant negative mismatch repair inhibitor (SEQ ID NO:17/18) (protein, listed as Homo sapiens)
chain: MAQPKQERVARARHQRSETARHQRSETAKTPTLGNRQTPTLGNRQTPRLGIHARPRRRATTSLLTLLLAFGKNAVRCALIGPGSLTSRTRPLTEPLGEKERREVFFPPRPERVEHNVESSRWEPRRRGACGSRGGNFPSPRGGSGVASLERAENSSTEPAKAIKPIDRKSVHQICSGPVVPSLRPNAVKELVENSLDAGATNVDLKLKDYGVDLIEVSGNGCGVEEENFEGFTLKHHTCKIQEFADLTQVETFGFRGEALSSLCALSDVTISTCRVSAKVGTRLVFDHYGKIIQKTPYPRPRGMTVSVKQLFSTLPVHHKEFQRNIKKKRACFPFAFCRDCQFPEASPAMLPVQPVELTPRSTPPHPCSLEDNVITVFSSVKNGPGSSR
Question: Which “microsatellite instability / β-galactosidase activity” value (293 cells) does the source give for B1 here?
Answer: The value was “high degree of MI leading to an increase in β-galactosidase activity”.

Question: What about the “uracil requiring clones on 5-FOA selection medium” value ([2]; methanol induced culture) of the same molecule?
Answer: The value was “have clones that are capable of growth on the selection medium”.

Question: And the “colonies resistant to 5-FOA” value ([2]; uninduced culture)?
Answer: Its value is “does not have any colonies that are resistant to 5-FOA”.

B2: PMSR3: human PMS2 homolog, dominant negative mismatch repair inhibitor (SEQ ID NO:19/20) (protein, listed as Homo sapiens)
chain: MCPWRPRLGRRCMVSPREADLGPQKDTRLDLPRSPARAPREQNSLGEVDRRGPREQTRAPATAAPPRPLGSRGAEAAEPQEGLSATVSACFQEQQEMNTLQGPVSFKDVAVDFTQEEWRQLDPDEKIAYGDVMLENYSHLVSVGYDYHQAKHHHGVEVKEVEQGEEPWIMEGEFPCQHSPEPAKAIKPIDRKSVHQICSGPVVLSLSTAVKELVENSLDAGATNIDLKLKDYGVDLIEVSDNGCGVEEENFEGLISFSSETSHM
Question: With B2 as the molecule, how does the “microsatellite instability / β-galactosidase activity” value (293 cells) read?
Answer: Its value is “high degree of MI leading to an increase in β-galactosidase activity”.
